Values of other authors, collected in paper PMC3197213.

Molecular target: syntaxin-1 SNARE motif (Rattus norvegicus) (UniProt P32851)
Sequence (P32851 191-253): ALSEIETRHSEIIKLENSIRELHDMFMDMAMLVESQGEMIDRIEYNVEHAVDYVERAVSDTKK

In the case of “Munc13-1 MUN domain (from UniProt Q62768)”, the Kd is listed as 46 µM.
